Measurements reported in the supplement of paper PMC9233669.
This sample holds only a part of the variants without activity.

Columns and labels:
biotinyl-Phe-oxazolone = test: self-aminoacylation, catalytic enhancement (BFO) (fold over background); higher = more active; k-Seq, kA / k0A0; sequences stand for … in GGGAAUGGAUCCACAUCUACGAAUUC…UUCACUGCAGACUUGACGAAGCUG
Summary of the method: (§1)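 Mutagenized RNA pools (0.43 μM; 21-nt variable region) were treated with 2–1250 μM of each biotinyl-aminoacyl-oxazolone. Conditions were 50 μL HEPES/NaCl/KCl/MgCl2/CaCl2 buffer, 5% acetonitrile, pH 6.9–7.0, room temperature, 90 minutes. Catalytic enhancement, the median kA relative to the uncatalyzed rate, was derived from streptavidin capture, qPCR and Illumina sequencing.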

biotinyl-Ile-oxazolone = test: self-aminoacylation, catalytic enhancement (BIO) (fold over background); higher = more active; k-Seq, kA / k0A0; sequences stand for … in GGGAAUGGAUCCACAUCUACGAAUUC…UUCACUGCAGACUUGACGAAGCUG
Summary of the method: as §1

biotinyl-Val-oxazolone = test: self-aminoacylation, catalytic enhancement (BVO) (fold over background); higher = more active; k-Seq, kA / k0A0; sequences stand for … in GGGAAUGGAUCCACAUCUACGAAUUC…UUCACUGCAGACUUGACGAAGCUG
Summary of the method: as §1

biotinyl-Leu-oxazolone = test: self-aminoacylation, catalytic enhancement (BLO) (fold over background); higher = more active; k-Seq, kA / k0A0; sequences stand for … in GGGAAUGGAUCCACAUCUACGAAUUC…UUCACUGCAGACUUGACGAAGCUG
Summary of the method: as §1

biotinyl-Met-oxazolone = test: self-aminoacylation, catalytic enhancement (BMO) (fold over background); higher = more active; k-Seq, kA / k0A0; sequences stand for … in GGGAAUGGAUCCACAUCUACGAAUUC…UUCACUGCAGACUUGACGAAGCUG
Summary of the method: as §1

biotinyl-Trp-oxazolone = test: self-aminoacylation, catalytic enhancement (BWO) (fold over background); higher = more active; k-Seq, kA / k0A0; sequences stand for … in GGGAAUGGAUCCACAUCUACGAAUUC…UUCACUGCAGACUUGACGAAGCUG
Summary of the method: as §1

“AUAACACUGGUCAUCGAGUGA [Fam2.1 aminoacylation ribozyme variant]” was tested, and the self-aminoacylation (biotinyl-Phe-oxazolone) was 14.7, the self-aminoacylation (biotinyl-Ile-oxazolone) was 2.83 and the self-aminoacylation (biotinyl-Val-oxazolone) was 3.06. It also gave a self-aminoacylation (biotinyl-Leu-oxazolone) of 4.62, a self-aminoacylation (biotinyl-Met-oxazolone) of 4.84 and a self-aminoacylation (biotinyl-Trp-oxazolone) of 6.89.
In the case of “CUACUUCACACAAUCCGUCUG [Fam1A.1 aminoacylation ribozyme variant]”, the self-aminoacylation (biotinyl-Phe-oxazolone) is reported as 0.747, the self-aminoacylation (biotinyl-Ile-oxazolone) is reported as 0.859 and the self-aminoacylation (biotinyl-Val-oxazolone) is reported as 0.854. It also gave a self-aminoacylation (biotinyl-Leu-oxazolone) of 0.81, a self-aminoacylation (biotinyl-Met-oxazolone) of 0.913 and a self-aminoacylation (biotinyl-Trp-oxazolone) of 0.495.
In the case of “AAGUUUGCUAUUUGUCGCAAG [Fam3.1 aminoacylation ribozyme variant]”, the self-aminoacylation (biotinyl-Phe-oxazolone) is reported as 1.05, the self-aminoacylation (biotinyl-Ile-oxazolone) is reported as 1.04 and the self-aminoacylation (biotinyl-Val-oxazolone) is reported as 0.819. For the same sequence, the self-aminoacylation (biotinyl-Leu-oxazolone) was 0.989, the self-aminoacylation (biotinyl-Met-oxazolone) was 0.936 and the self-aminoacylation (biotinyl-Trp-oxazolone) was 1.2.
With “AAGUCUGCUAAUGGUCGCAAG [Fam3.1 aminoacylation ribozyme variant]” the self-aminoacylation (biotinyl-Phe-oxazolone) was 5.79, the self-aminoacylation (biotinyl-Ile-oxazolone) was 0.882 and the self-aminoacylation (biotinyl-Val-oxazolone) was 0.865. For the same sequence, the self-aminoacylation (biotinyl-Leu-oxazolone) was 0.959, the self-aminoacylation (biotinyl-Met-oxazolone) was 1.3 and the self-aminoacylation (biotinyl-Trp-oxazolone) was 0.919.
Sequence “GCACACUUCAAGCAAUUGGUC [Fam1B.1 aminoacylation ribozyme variant]” has a self-aminoacylation (biotinyl-Phe-oxazolone) of 2.06, a self-aminoacylation (biotinyl-Ile-oxazolone) of 1.47 and a self-aminoacylation (biotinyl-Val-oxazolone) of 1.22. It also gave a self-aminoacylation (biotinyl-Leu-oxazolone) of 1.3, a self-aminoacylation (biotinyl-Met-oxazolone) of 1.45 and a self-aminoacylation (biotinyl-Trp-oxazolone) of 1.94.
Sequence “CCACACUUAACGCAAUCGGUC [Fam1B.1 aminoacylation ribozyme variant]” has a self-aminoacylation (biotinyl-Phe-oxazolone) of 0.826, a self-aminoacylation (biotinyl-Ile-oxazolone) of 1.08 and a self-aminoacylation (biotinyl-Val-oxazolone) of 1.11. It also gave a self-aminoacylation (biotinyl-Leu-oxazolone) of 0.986, a self-aminoacylation (biotinyl-Met-oxazolone) of 0.874 and a self-aminoacylation (biotinyl-Trp-oxazolone) of 1.11.
“AUUCACCUAGGUCAACCGGUG [Fam2.2 aminoacylation ribozyme variant]” gave a self-aminoacylation (biotinyl-Phe-oxazolone) of 26.6, a self-aminoacylation (biotinyl-Ile-oxazolone) of 2.99 and a self-aminoacylation (biotinyl-Val-oxazolone) of 2.72. The self-aminoacylation (biotinyl-Leu-oxazolone) was 6.28, the self-aminoacylation (biotinyl-Met-oxazolone) was 4.9 and the self-aminoacylation (biotinyl-Trp-oxazolone) was 4.14.
Sequence “AUUCACCUCGGUCACCGGGUG [Fam2.2 aminoacylation ribozyme variant]” has a self-aminoacylation (biotinyl-Phe-oxazolone) of 41.9, a self-aminoacylation (biotinyl-Ile-oxazolone) of 5 and a self-aminoacylation (biotinyl-Val-oxazolone) of 4.43. It also gave a self-aminoacylation (biotinyl-Leu-oxazolone) of 6.77, a self-aminoacylation (biotinyl-Met-oxazolone) of 6.37 and a self-aminoacylation (biotinyl-Trp-oxazolone) of 8.88.
“CCUCACUUCAAGCAAUAGGUC [Fam1B.1 aminoacylation ribozyme variant]” showed a self-aminoacylation (biotinyl-Phe-oxazolone) of 1.26, a self-aminoacylation (biotinyl-Ile-oxazolone) of 0.573 and a self-aminoacylation (biotinyl-Val-oxazolone) of 0.592. For the same sequence, the self-aminoacylation (biotinyl-Leu-oxazolone) was 0.553, the self-aminoacylation (biotinyl-Met-oxazolone) was 0.468 and the self-aminoacylation (biotinyl-Trp-oxazolone) was 0.622.
Sequence “AUUACCUAGGUCAUCGAGUGA [Fam2.1 aminoacylation ribozyme variant]” has a self-aminoacylation (biotinyl-Phe-oxazolone) of 6.96, a self-aminoacylation (biotinyl-Ile-oxazolone) of 4.2 and a self-aminoacylation (biotinyl-Val-oxazolone) of 4.01. It also gave a self-aminoacylation (biotinyl-Leu-oxazolone) of 7.92, a self-aminoacylation (biotinyl-Met-oxazolone) of 6.35 and a self-aminoacylation (biotinyl-Trp-oxazolone) of 7.91.
In the case of “AUUACCCUGGGCAUCGAGAGA [Fam2.1 aminoacylation ribozyme variant]”, the self-aminoacylation (biotinyl-Phe-oxazolone) is reported as 0.489, the self-aminoacylation (biotinyl-Ile-oxazolone) is reported as 0.802 and the self-aminoacylation (biotinyl-Val-oxazolone) is reported as 0.74. It also gave a self-aminoacylation (biotinyl-Leu-oxazolone) of 0.749, a self-aminoacylation (biotinyl-Met-oxazolone) of 0.914 and a self-aminoacylation (biotinyl-Trp-oxazolone) of 0.642.
With “AUCCACCUAGGUCAUCGCGUG [Fam2.2 aminoacylation ribozyme variant]” the self-aminoacylation (biotinyl-Phe-oxazolone) was 88.1, the self-aminoacylation (biotinyl-Ile-oxazolone) was 7.45 and the self-aminoacylation (biotinyl-Val-oxazolone) was 7.73. The self-aminoacylation (biotinyl-Leu-oxazolone) was 13.9, the self-aminoacylation (biotinyl-Met-oxazolone) was 8.4 and the self-aminoacylation (biotinyl-Trp-oxazolone) was 8.63.
“AAGCUUGCUAAUAGUCGUAAG [Fam3.1 aminoacylation ribozyme variant]” gave a self-aminoacylation (biotinyl-Phe-oxazolone) of 8.49, a self-aminoacylation (biotinyl-Ile-oxazolone) of 1.26 and a self-aminoacylation (biotinyl-Val-oxazolone) of 1.48. It also gave a self-aminoacylation (biotinyl-Leu-oxazolone) of 0.843, a self-aminoacylation (biotinyl-Met-oxazolone) of 1.12 and a self-aminoacylation (biotinyl-Trp-oxazolone) of 2.69.
For “AUUCACCUAGUUCAUCGGAUG [Fam2.2 aminoacylation ribozyme variant]”, the self-aminoacylation (biotinyl-Phe-oxazolone) was 0.611, the self-aminoacylation (biotinyl-Ile-oxazolone) was 0.963 and the self-aminoacylation (biotinyl-Val-oxazolone) was 0.951. It also gave a self-aminoacylation (biotinyl-Leu-oxazolone) of 0.819, a self-aminoacylation (biotinyl-Met-oxazolone) of 1.03 and a self-aminoacylation (biotinyl-Trp-oxazolone) of 0.827.
Work on “AUUACCCGGGUCAUCGAGGGA [Fam2.1 aminoacylation ribozyme variant]” yielded a self-aminoacylation (biotinyl-Phe-oxazolone) of 3.47, a self-aminoacylation (biotinyl-Ile-oxazolone) of 1.46 and a self-aminoacylation (biotinyl-Val-oxazolone) of 1.32. For the same sequence, the self-aminoacylation (biotinyl-Leu-oxazolone) was 1.61, the self-aminoacylation (biotinyl-Met-oxazolone) was 1.32 and the self-aminoacylation (biotinyl-Trp-oxazolone) was 0.834.
For “CCACACUUCAAGCAAUCGCUC [Fam1B.1 aminoacylation ribozyme variant]”, the self-aminoacylation (biotinyl-Phe-oxazolone) was 1.2, the self-aminoacylation (biotinyl-Ile-oxazolone) was 1.33 and the self-aminoacylation (biotinyl-Val-oxazolone) was 1.44. It also gave a self-aminoacylation (biotinyl-Leu-oxazolone) of 1.27, a self-aminoacylation (biotinyl-Met-oxazolone) of 1.3 and a self-aminoacylation (biotinyl-Trp-oxazolone) of 1.29.
With “AUUAUCCAGGUCAUCGAGUGA [Fam2.1 aminoacylation ribozyme variant]” the self-aminoacylation (biotinyl-Phe-oxazolone) was 30.3, the self-aminoacylation (biotinyl-Ile-oxazolone) was 3.13 and the self-aminoacylation (biotinyl-Val-oxazolone) was 3.41. For the same sequence, the self-aminoacylation (biotinyl-Leu-oxazolone) was 6.32, the self-aminoacylation (biotinyl-Met-oxazolone) was 6.52 and the self-aminoacylation (biotinyl-Trp-oxazolone) was 7.93.
“AUGCACCUAGGUCAUCGGGUG [Fam2.2 aminoacylation ribozyme variant]” showed a self-aminoacylation (biotinyl-Phe-oxazolone) of 30.1, a self-aminoacylation (biotinyl-Ile-oxazolone) of 4.06 and a self-aminoacylation (biotinyl-Val-oxazolone) of 4.11. The self-aminoacylation (biotinyl-Leu-oxazolone) was 6.25, the self-aminoacylation (biotinyl-Met-oxazolone) was 5.65 and the self-aminoacylation (biotinyl-Trp-oxazolone) was 6.01.
For “AAGGUUGCUAUUAGUCGCAAG [Fam3.1 aminoacylation ribozyme variant]”, the self-aminoacylation (biotinyl-Phe-oxazolone) was 2.24, the self-aminoacylation (biotinyl-Ile-oxazolone) was 1.66 and the self-aminoacylation (biotinyl-Val-oxazolone) was 1.18. For the same sequence, the self-aminoacylation (biotinyl-Leu-oxazolone) was 1.56, the self-aminoacylation (biotinyl-Met-oxazolone) was 1.3 and the self-aminoacylation (biotinyl-Trp-oxazolone) was 1.53.
Work on “AAUACCCUGGUCAUCAAGUGA [Fam2.1 aminoacylation ribozyme variant]” yielded a self-aminoacylation (biotinyl-Phe-oxazolone) of 2.42, a self-aminoacylation (biotinyl-Ile-oxazolone) of 1.15 and a self-aminoacylation (biotinyl-Val-oxazolone) of 1.16. The self-aminoacylation (biotinyl-Leu-oxazolone) was 1.56, the self-aminoacylation (biotinyl-Met-oxazolone) was 1.48 and the self-aminoacylation (biotinyl-Trp-oxazolone) was 1.75.
“CCACACUUCAAGCGAUCGGCC [Fam1B.1 aminoacylation ribozyme variant]” was tested, and the self-aminoacylation (biotinyl-Phe-oxazolone) was 20.2, the self-aminoacylation (biotinyl-Ile-oxazolone) was 3.31 and the self-aminoacylation (biotinyl-Val-oxazolone) was 5.25. The self-aminoacylation (biotinyl-Leu-oxazolone) was 2.6, the self-aminoacylation (biotinyl-Met-oxazolone) was 4.7 and the self-aminoacylation (biotinyl-Trp-oxazolone) was 7.01.
“UAGUUUGCUAAUGGUCGCAAG [Fam3.1 aminoacylation ribozyme variant]” showed a self-aminoacylation (biotinyl-Phe-oxazolone) of 1.19, a self-aminoacylation (biotinyl-Ile-oxazolone) of 1.11 and a self-aminoacylation (biotinyl-Val-oxazolone) of 1.1. For the same sequence, the self-aminoacylation (biotinyl-Leu-oxazolone) was 0.81, the self-aminoacylation (biotinyl-Met-oxazolone) was 1.17 and the self-aminoacylation (biotinyl-Trp-oxazolone) was 1.22.
With “ACUACCCUGGUCAUCGAGUGC [Fam2.1 aminoacylation ribozyme variant]” the self-aminoacylation (biotinyl-Phe-oxazolone) was 10.1, the self-aminoacylation (biotinyl-Ile-oxazolone) was 2.18 and the self-aminoacylation (biotinyl-Val-oxazolone) was 2.44. The self-aminoacylation (biotinyl-Leu-oxazolone) was 5.6, the self-aminoacylation (biotinyl-Met-oxazolone) was 5.55 and the self-aminoacylation (biotinyl-Trp-oxazolone) was 4.17.
In the case of “AUGACCCUGGUCUUCGAGUGA [Fam2.1 aminoacylation ribozyme variant]”, the self-aminoacylation (biotinyl-Phe-oxazolone) is reported as 30.4, the self-aminoacylation (biotinyl-Ile-oxazolone) is reported as 2.9 and the self-aminoacylation (biotinyl-Val-oxazolone) is reported as 2.95. It also gave a self-aminoacylation (biotinyl-Leu-oxazolone) of 6.24, a self-aminoacylation (biotinyl-Met-oxazolone) of 5.04 and a self-aminoacylation (biotinyl-Trp-oxazolone) of 6.19.
For “AAGUUAGCUAAUAGUGGCAAG [Fam3.1 aminoacylation ribozyme variant]”, the self-aminoacylation (biotinyl-Phe-oxazolone) was 0.615, the self-aminoacylation (biotinyl-Ile-oxazolone) was 0.718 and the self-aminoacylation (biotinyl-Val-oxazolone) was 0.648. It also gave a self-aminoacylation (biotinyl-Leu-oxazolone) of 0.554, a self-aminoacylation (biotinyl-Met-oxazolone) of 0.809 and a self-aminoacylation (biotinyl-Trp-oxazolone) of 0.543.
With “CUACGACAAACAAUCGGUCUG [Fam1A.1 aminoacylation ribozyme variant]” the self-aminoacylation (biotinyl-Phe-oxazolone) was 1.69, the self-aminoacylation (biotinyl-Ile-oxazolone) was 0.748 and the self-aminoacylation (biotinyl-Val-oxazolone) was 0.654. It also gave a self-aminoacylation (biotinyl-Leu-oxazolone) of 0.655, a self-aminoacylation (biotinyl-Met-oxazolone) of 0.713 and a self-aminoacylation (biotinyl-Trp-oxazolone) of 0.855.
